Measurements published in patent US20030158378A1 (Amgen, published 2003).

Molecular target: T1, FLAG-tagged murine CHL2 polypeptide (mCHL2-FLAG) (murine, UniProt Q8VEA6 27-426)
T1 construct: also called murine CHL2-FLAG; FLAG-tagged mCHL2 protein
T1 sequence: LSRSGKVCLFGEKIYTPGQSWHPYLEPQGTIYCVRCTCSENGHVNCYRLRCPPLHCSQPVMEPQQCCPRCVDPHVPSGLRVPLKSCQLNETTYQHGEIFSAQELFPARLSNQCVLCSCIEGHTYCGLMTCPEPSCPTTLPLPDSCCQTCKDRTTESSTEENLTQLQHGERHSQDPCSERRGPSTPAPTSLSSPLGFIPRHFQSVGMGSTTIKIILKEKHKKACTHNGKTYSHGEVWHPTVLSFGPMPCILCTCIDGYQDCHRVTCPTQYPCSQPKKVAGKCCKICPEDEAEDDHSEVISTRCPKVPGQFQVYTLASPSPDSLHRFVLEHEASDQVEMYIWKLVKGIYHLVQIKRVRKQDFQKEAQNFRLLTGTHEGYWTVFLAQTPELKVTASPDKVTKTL
Assay: co-immunoprecipitation: mCHL2-FLAG mixed with activin A, anti-mCHL2 antiserum, protein A agarose beads, western blot for activin
Excerpt: FIG. 12 illustrates the results of Western blot analysis using mCHL2-FLAG proteins. In panel A, mCHL2-FLAG was mixed with BMP5 or activin A, treated with an anti-mCHL2 antiserum, and precipitated with protein A agarose beads. In panel B, mCHL2-FLAG was mixed with BMP2, BMP4, BMP5, BMP6, GDF5 (BMP14), or activin A, treated with an anti-mCHL2 antiserum, and precipitated with protein A agarose beads.

- binding result: no binding
B1: activin A (ligand, UniProt P08476 311-426, looked up)
chain: GLECDGKVNICCKKQFFVSFKDIGWNDWIIAPSGYHANYCEGECPSHIAGTSGSSLSFHSTVINHYRMRGHSPFANLKSCCVPTKLRPMSMLYYDDGQNIIKKDIQNMIVEECGCS
